From article PMC7111323 (Cell, 2016) come the findings set out here.

Read-outs that look alike come from different tables or passages of the source.

First the molecules themselves.
T1: full-length human NPC1 (Niemann-Pick C1) (human, UniProt O15118 23-1278)
T1 sequence: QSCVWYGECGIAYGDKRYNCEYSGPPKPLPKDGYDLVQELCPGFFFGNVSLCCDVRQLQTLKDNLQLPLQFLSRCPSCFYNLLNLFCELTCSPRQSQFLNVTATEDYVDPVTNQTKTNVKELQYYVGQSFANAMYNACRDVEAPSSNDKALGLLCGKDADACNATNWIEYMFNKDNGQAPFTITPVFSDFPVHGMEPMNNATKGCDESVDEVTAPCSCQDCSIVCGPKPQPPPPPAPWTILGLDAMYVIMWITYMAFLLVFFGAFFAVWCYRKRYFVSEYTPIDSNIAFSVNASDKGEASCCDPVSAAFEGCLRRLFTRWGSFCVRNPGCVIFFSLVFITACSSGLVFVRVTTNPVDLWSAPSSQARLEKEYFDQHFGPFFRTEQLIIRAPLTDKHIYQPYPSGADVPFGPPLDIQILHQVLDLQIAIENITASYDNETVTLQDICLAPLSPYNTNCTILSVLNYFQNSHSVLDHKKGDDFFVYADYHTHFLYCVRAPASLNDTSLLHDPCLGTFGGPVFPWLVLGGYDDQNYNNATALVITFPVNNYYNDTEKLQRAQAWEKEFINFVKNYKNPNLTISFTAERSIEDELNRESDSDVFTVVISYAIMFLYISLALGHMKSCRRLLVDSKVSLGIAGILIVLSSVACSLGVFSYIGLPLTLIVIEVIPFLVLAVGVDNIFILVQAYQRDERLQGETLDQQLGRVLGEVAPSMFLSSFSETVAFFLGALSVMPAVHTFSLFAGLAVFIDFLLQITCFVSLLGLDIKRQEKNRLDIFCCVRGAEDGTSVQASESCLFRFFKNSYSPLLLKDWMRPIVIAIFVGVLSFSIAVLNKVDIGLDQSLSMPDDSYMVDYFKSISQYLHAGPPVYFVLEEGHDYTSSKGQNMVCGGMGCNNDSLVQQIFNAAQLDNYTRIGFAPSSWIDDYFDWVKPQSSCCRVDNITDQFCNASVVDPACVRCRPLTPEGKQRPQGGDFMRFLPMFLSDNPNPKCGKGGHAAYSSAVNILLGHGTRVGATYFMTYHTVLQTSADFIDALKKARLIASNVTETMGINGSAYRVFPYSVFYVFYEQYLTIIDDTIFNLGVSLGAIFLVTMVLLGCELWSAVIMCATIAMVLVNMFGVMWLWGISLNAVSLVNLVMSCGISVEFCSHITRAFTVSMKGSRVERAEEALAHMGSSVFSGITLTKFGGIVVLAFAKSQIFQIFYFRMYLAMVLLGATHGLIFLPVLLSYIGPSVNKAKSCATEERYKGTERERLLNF

B1: human NPC2 (natural protein)
chain: EPVQFKDCGSVDGVIKEVNVSPCPTQPCQLSKGQSYSVNVTFTSNIQSKSSKAVVHGILMGVPVPFPIPEPDGCKSGINCPIQKDKTYSYLNKLPVKSEYPSIKLVVEWQLQDDKNQSLFCWEIPVQIVSHL
B2: human NPC1 ΔLinker (full length with internal deletion of the Pro-rich segment 249…257) (natural protein)
chain: QSCVWYGECGIAYGDKRYNCEYSGPPKPLPKDGYDLVQELCPGFFFGNVSLCCDVRQLQTLKDNLQLPLQFLSRCPSCFYNLLNLFCELTCSPRQSQFLNVTATEDYVDPVTNQTKTNVKELQYYVGQSFANAMYNACRDVEAPSSNDKALGLLCGKDADACNATNWIEYMFNKDNGQAPFTITPVFSDFPVHGMEPMNNATKGCDESVDEVTAPCSCQDCSIVCGAPWTILGLDAMYVIMWITYMAFLLVFFGAFFAVWCYRKRYFVSEYTPIDSNIAFSVNASDKGEASCCDPVSAAFEGCLRRLFTRWGSFCVRNPGCVIFFSLVFITACSSGLVFVRVTTNPVDLWSAPSSQARLEKEYFDQHFGPFFRTEQLIIRAPLTDKHIYQPYPSGADVPFGPPLDIQILHQVLDLQIAIENITASYDNETVTLQDICLAPLSPYNTNCTILSVLNYFQNSHSVLDHKKGDDFFVYADYHTHFLYCVRAPASLNDTSLLHDPCLGTFGGPVFPWLVLGGYDDQNYNNATALVITFPVNNYYNDTEKLQRAQAWEKEFINFVKNYKNPNLTISFTAERSIEDELNRESDSDVFTVVISYAIMFLYISLALGHMKSCRRLLVDSKVSLGIAGILIVLSSVACSLGVFSYIGLPLTLIVIEVIPFLVLAVGVDNIFILVQAYQRDERLQGETLDQQLGRVLGEVAPSMFLSSFSETVAFFLGALSVMPAVHTFSLFAGLAVFIDFLLQITCFVSLLGLDIKRQEKNRLDIFCCVRGAEDGTSVQASESCLFRFFKNSYSPLLLKDWMRPIVIAIFVGVLSFSIAVLNKVDIGLDQSLSMPDDSYMVDYFKSISQYLHAGPPVYFVLEEGHDYTSSKGQNMVCGGMGCNNDSLVQQIFNAAQLDNYTRIGFAPSSWIDDYFDWVKPQSSCCRVDNITDQFCNASVVDPACVRCRPLTPEGKQRPQGGDFMRFLPMFLSDNPNPKCGKGGHAAYSSAVNILLGHGTRVGATYFMTYHTVLQTSADFIDALKKARLIASNVTETMGINGSAYRVFPYSVFYVFYEQYLTIIDDTIFNLGVSLGAIFLVTMVLLGCELWSAVIMCATIAMVLVNMFGVMWLWGISLNAVSLVNLVMSCGISVEFCSHITRAFTVSMKGSRVERAEEALAHMGSSVFSGITLTKFGGIVVLAFAKSQIFQIFYFRMYLAMVLLGATHGLIFLPVLLSYIGPSVNKAKSCATEERYKGTERERLLNF

Common to all, as to assay: ITC
On the technique in general: Isothermal titration calorimetry measures the heat released or taken up as one component is titrated into another.

The target of assay [1] is T1, full-length human NPC1 (Niemann-Pick C1).
The target is the same in assay [2]. The source holds these as a separate data set.
The target in assay [3] is B1.

A word on the Kd: it is the constant that tells how readily two partners part at equilibrium. Low values mean a tighter complex, high ones a looser complex. With B1, the Kd in assay [1] was determined as 217 ± 35.3 µM; in assay [2] it was 15.8 ± 1.2 µM.

On to B2, for which the Kd in assay [3] is 266 ± 25.5 µM.
